According to paper PMC6018088:

Key:
[1] = target: T1, HapR (Vibrio cholerae O1 El Tor C7258?) (UniProt Q4F6W7); assay: DNase I footprinting; conditions: […]; buffer, pH and temperature not given ([…]
T1 sequence: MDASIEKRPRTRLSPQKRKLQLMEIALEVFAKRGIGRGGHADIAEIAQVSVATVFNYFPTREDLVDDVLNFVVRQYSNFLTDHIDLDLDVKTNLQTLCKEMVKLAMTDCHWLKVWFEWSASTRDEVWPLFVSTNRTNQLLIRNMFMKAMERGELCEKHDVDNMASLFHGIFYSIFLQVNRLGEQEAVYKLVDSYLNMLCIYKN

[2] = target: T2, Fur (Vibrio cholerae O1 El Tor C7258?) (UniProt P0C6C8); assay: DNase I footprinting; conditions: DNase I footprinting with FAM/HEX-labeled probes and RQ1 DNase I; buffer, salt, pH and temperature not given (cites earlier work)
T2 sequence: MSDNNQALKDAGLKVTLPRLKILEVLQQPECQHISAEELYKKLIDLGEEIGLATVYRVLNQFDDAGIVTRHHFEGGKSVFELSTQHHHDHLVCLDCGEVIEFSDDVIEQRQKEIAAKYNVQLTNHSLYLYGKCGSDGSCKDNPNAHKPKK

GTAAAACGACGGCCAGTCTTATGTGTAAGCGTATTGAAATCTTTAGAGTTAAAATGGAGAACTTAACTTTTTTTAAATTATTCAATTAATCTTTAAATCAACCTTATAAATTAATTCAGACTAAATTAGTTCAAATTAAATTAGGCTCATTAAATAATATGAATATCAGTAATTGTTATTTTAGGAAGAAATTATTTTACAGCAAATAAAAAGTCTTTAGAGGCTAAAATCTGTGATCCGGTCATAGCTGTTTCCTG (double strand) [hlyA promoter fragment]
binding [1]: binds | binding [2]: binds
